How the values were obtained:
[1] = biological target: CZA97.012 gp140 (uncleaved, foldon, His-tagged) (HIV-1 (subtype C, CZA97.012) | not stated); experiment: SEC
[2] = biological target: BG505 SOSIP.664 gp140 trimer (cleaved) (HIV-1 (BG505)); experiment: negative stain electron microscopy
[3] = biological target: BG505 WT.SEKS gp140 (uncleaved) (HIV-1 (BG505)); experiment: negative stain electron microscopy

## CZA97.012 gp140 (uncleaved, foldon, His-tagged)
[1]
  stoichiometry N: 3

## BG505 SOSIP.664 gp140 trimer (cleaved) (complex)
[2]
  stoichiometry N: 3

## BG505 WT.SEKS gp140 (uncleaved)
[3]
  stoichiometry N: 3

— publication PMC4555872
